Data set [1] addresses EWS RanBP2-type zinc finger (Homo sapiens, UniProt Q01844 Q01844:518-549). The data set is described as follows: FP; value in figure only. Conditions: tags: expressed as GST fusion. Here is the method: (§1) Fluorescence Anisotropy titrations e.g., as shown in FIGS. 1D-F, 8 and 35, were carried out using standard protocols. In brief, 5′-Fluorescein-labeled RNA oligonucleotides were quantified by A₂₆₀, correcting for fluorescein absorbance by using A₄₉₃. For single-site experiments, the sequence […] (SEQ ID NO: 28), or single base mutants thereof, was used. For double-site experiments, two AGGUAA sites were separated by different length sequences as indicated, and the total oligonucleotide lengths were kept constant by the symmetrical addition of adenines to each end. The anisotropy titrations were performed with a starting RNA concentration of 50 nM in a buffer comprising either 10 mM Tris (pH 8.0), 50 mM KCl, 5 mM MgCl₂, 0.05 mg/mL heparin, and 1 mM DTT (for GST fusion constructs) or 10 mM Mops (pH 7.3), 50 mM NaCl, 0.05 mg/mL heparin, and 1 mM DTT (for ZRANB2-F12). RNasin (Promega) was also added to the protein solution to a concentration of 2 units/μL. Protein was titrated into this starting solution and anisotropy values measured on a Cary Eclipse fluorescence spectrophotometer fitted with manual polarizer and long-pass filters set to 475 and 515 nm for excitation and emission, respectively. […] Association constants were determined by nonlinear least squares regression analysis using a 1:1 binding model.

Another data set deals with T1, ZRANB2-F2 (untagged) (Homo sapiens, UniProt O95218 O95218:65-95).
T1 chain: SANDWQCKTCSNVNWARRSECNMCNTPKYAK
Description: structure; crystal structure 1.4 A; W79 stacks between G2 and G3.

The next data set deals with EKLF-F123 (UniProt P46099 P46099:275-357). Description: FP; higher affinity than poly(C) or AGGUAA; also HSQC titration. The following applies: tags: zinc fingers 1-3.
Data set [2] concerns the target T2, ZRANB2-F12 delta45-64 (Homo sapiens, UniProt O95218 O95218:1-44+65-95, del45-64). The data set is described as follows: FP. The following applies: label: 5'-fluorescein.
The next data set deals with T3, ZRANB2-F2 R82N (Homo sapiens, UniProt O95218 O95218:65-95, R82N).
T3 chain: T1 chain with R18N
The data set is described as follows: FP; also about 2-fold increase versus WT F2. Conditions: label: 5'-fluorescein. Here is the method:
The anisotropy titrations were performed with a starting RNA concentration of 50 nM in a buffer comprising either 10 mM Tris (pH 8.0), 50 mM KCl, 5 mM MgCl₂, 0.05 mg/mL heparin, and 1 mM DTT (for GST fusion constructs) or 10 mM Mops (pH 7.3), 50 mM NaCl, 0.05 mg/mL heparin, and 1 mM DTT (for ZRANB2-F12). RNasin (Promega) was also added to the protein solution to a concentration of 2 units/μL. Protein was titrated into this starting solution and anisotropy values measured on a Cary Eclipse fluorescence spectrophotometer fitted with manual polarizer and long-pass filters set to 475 and 515 nm for excitation and emission, respectively. Excitation and emission wavelengths were set at 495 and 520 nm, respectively (10-nm slits) and the temperature was maintained at 25° C. by using a block temperature controller. Association constants were determined by nonlinear least squares regression analysis using a 1:1 binding model. […]

For a further data set, the target named is ZRANB2-F12 delta47-61 (Homo sapiens, UniProt O95218 O95218:1-46+62-95, del47-61). The data set is described as follows: FP; about 30-51e6 stated; order comparable to wild-type F12. The following applies: label: 5'-fluorescein. Here is the method:
as §1, with “The anisotropy titrations were performed with a starting RNA concentration of 50 nM in a buffer comprising either 10 mM Tris (pH 8.0), 50 mM KCl, 5 mM MgCl₂, 0.05 mg/mL heparin, and 1 mM DTT (for GST fusion constructs) or 10 mM Mops (pH 7.3), 50 mM NaCl, 0.05 mg/mL heparin, and 1 mM DTT (for ZRANB2-F12). RNasin (Promega) was also added to the protein solution to a concentration of 2 units/μL.” left out
(§2) The inventors have employed deletion mutagenesis to thereby identify a minimal inter-finger linker region of ZRANB2 required for specific ssRNA-binding. […] The deletion constructs were then tested for an ability to bind the ssRNA substrate 5′-GGUNXGGU-3′ comprising a repeat of the GGU core sequence using fluorescence anisotropy titration.

Data set [3] concerns the target T2, ZRANB2-F12 delta45-64. The data set is described as follows: FP; lower affinity than F122. The following applies: label: 5'-fluorescein. Here is the method: as §1, with “model. […]” for “model.”
Data set [4] deals with T4, ZRANB2-F12 (Homo sapiens, UniProt O95218 O95218:1-95). Description: FP; range stated for deletion construct and comparable wild type. Conditions: tags: GST removed for FA, gel shift and SPR; label: 5'-fluorescein. Here is the method:
as §1, with “The anisotropy titrations were performed with a starting RNA concentration of 50 nM in a buffer comprising either 10 mM Tris (pH 8.0), 50 mM KCl, 5 mM MgCl₂, 0.05 mg/mL heparin, and 1 mM DTT (for GST fusion constructs) or 10 mM Mops (pH 7.3), 50 mM NaCl, 0.05 mg/mL heparin, and 1 mM DTT (for ZRANB2-F12). RNasin (Promega) was also added to the protein solution to a concentration of 2 units/μL.” left out
as §2
A general note: In EMSA bound probe runs differently from free probe, usually more slowly.

The target of data set [5] is T4, ZRANB2-F12. The data set is described as follows: FP; affinity increases with spacing; value in figure only. The following applies: tags: GST removed for FA, gel shift and SPR; label: 5'-fluorescein. As for the experimental part: as §1, with “The anisotropy titrations were performed with a starting RNA concentration of 50 nM in a buffer comprising either 10 mM Tris (pH 8.0), 50 mM KCl, 5 mM MgCl₂, 0.05 mg/mL heparin, and 1 mM DTT (for GST fusion constructs) or 10 mM Mops (pH 7.3), 50 mM NaCl, 0.05 mg/mL heparin, and 1 mM DTT (for ZRANB2-F12). RNasin (Promega) was also added to the protein solution to a concentration of 2 units/μL.” left out
The importance of the spacing between AGGUAA motifs was assessed by measuring binding of F12 to double sites that were separated by −1 to 8 nt (where −1 denotes the sequence […] SEQ ID NO: 33; FIG. 1E, lanes 5-10).

Residue numbers refer to the chain shown, from its start.

Sequence of EWS RanBP2-type zinc finger (Q01844 518-549, one chain of several): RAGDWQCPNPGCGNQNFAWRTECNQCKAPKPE
Sequence of EKLF-F123 (P46099 275-357, one chain of several): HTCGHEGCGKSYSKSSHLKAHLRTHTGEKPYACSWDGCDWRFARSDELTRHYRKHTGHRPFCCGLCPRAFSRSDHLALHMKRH

B1: AGGUAA hexamer (ssRNA)
RNA: AGGUAA
For B1, the binding result (in data set [1]; with ZRANB2-F2 (untagged)) was “binds” each time.

B2: U9 (ssRNA)
RNA: UUUUUUUUU
In the case of B2, the binding result with EKLF-F123 is reported as “binds”.

B3: GGUGGUGGU 13-mer (ssRNA)
RNA: AAGGUGGUGGUAA
Molecule B3 came in with a Ka in the data set with ZRANB2-F12 delta45-64 [2] of around 2.5e+07 M⁻¹.

B4: AGUUAA (3U) (ssRNA)
RNA: AGUUAA
In the data set with ZRANB2-F2 R82N, B4 yielded a binding signal of around 2 fold higher than AGGUAA.

B5: GGUGGU 13-mer (ssRNA)
RNA: AAAGGUGGUAAAA
In the case of B5, the binding result in the data set with ZRANB2-F12 delta47-61, in the data set with ZRANB2-F12 delta45-64 [3] and in the data set with ZRANB2-F12 [4] was “binds” each time.

B6: double site spacing -1 (ssRNA)
RNA: AGGUAAGGUAA
As for B6, the binding result with ZRANB2-F12 [5] is “binds”.
